From patent US20060052294A1 (CINCINNATI CHILDREN S HOSPITAL MEDICAL CENTER, published 2006)
Substitutions are numbered along the chain they refer to. Numbers in names are those of the source.

T1: human C5a receptor (human, UniProt P21730 1-350)
T1 sequence (looked up): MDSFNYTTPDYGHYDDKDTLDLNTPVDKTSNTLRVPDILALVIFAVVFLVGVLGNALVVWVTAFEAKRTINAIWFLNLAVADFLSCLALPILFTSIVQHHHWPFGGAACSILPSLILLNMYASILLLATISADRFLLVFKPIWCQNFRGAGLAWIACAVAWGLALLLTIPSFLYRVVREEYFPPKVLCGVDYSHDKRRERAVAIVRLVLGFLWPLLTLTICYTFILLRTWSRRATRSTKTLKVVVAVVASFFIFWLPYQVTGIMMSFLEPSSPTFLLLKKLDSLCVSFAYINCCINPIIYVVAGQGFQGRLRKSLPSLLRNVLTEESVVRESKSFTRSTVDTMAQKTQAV

B1: C5a-(1-66,Cys27Ala)-A8B-Lys69-Ala70 (ligand)
chain: TLQKKIEEIAAKYKHSVVKKCCYDGAAVNNDETCEQRAARISLGPRCIKAFTECCVVASQLRANISFKKALLR
B2: C5a-(1-66,Cys27Ala)-A8B (ligand)
chain: B1 chain with K69R, A70S
notes: Mutein of human C5a, expressed in the E. coli periplasm without a fusion partner and purified on mAb 561; also called C5aRA A8B; mutein A8B
B3: C5a-(1-66,Cys27Ala)-A8B-Leu70-Tyr73 (ligand)
chain: B1 chain with K69R, A70L, R73Y
notes: also called 67-FKRLLLY-73
B4: C5a-(1-66,Cys27Ala)-A8B-Leu70 (ligand)
chain: B1 chain with K69R, A70L
notes: also called 67-FKRLLLR-73
B5: C5a-(1-66,Cys27Ala)-A8B-Cys73 (ligand)
chain: B1 chain with K69R, A70S, R73C
notes: also called Ab8-Cys73; 67-FKRSLLC-73
B6: C5a-(1-66,Cys27Arg)-A8B (ligand)
chain: B1 chain with A27R, K69R, A70S
notes: also called A8B-Arg27; A8B Arg 27
B7: C5a-(1-66,Cys27Ala)-A8B-Asp69 (ligand)
chain: B1 chain with K69D, A70S
notes: also called A8B-Arg69Asp
B8: C5a-(1-66,Cys27Ala)-A8B-Ala69 (ligand)
chain: B1 chain with K69A, A70S
notes: also called A8B-Arg69Ala
B9: recombinant human C5a (ligand)
chain: TLQKKIEEIAAKYKHSVVKKCCYDGACVNNDETCEQRAARISLGPRCIKAFTECCVVASQLRANISHKDMQLGR
notes: 74-residue recombinant human C5a; also called rhC5a; rC5a
B10: C5a-(1-66,Cys27Ala)-A8B-Del.71-73 (ligand)
chain: TLQKKIEEIAAKYKHSVVKKCCYDGAAVNNDETCEQRAARISLGPRCIKAFTECCVVASQLRANISFKRS
notes: also called C5a-(1-66, Cys27Ala)-FKRS-70; 67-FKRS-70

Each binder was assayed against T1, human C5a receptor (assay: cell-based or functional assay).

| ED50 [nM] (N-acetyl-beta-D-glucosaminidase release from C5aR-RBL cells) | ID50 [nM] (inhibition of N-acetyl-beta-D-glucosaminidase release from C5aR-RBL cells) | Binder |
| --- | --- | --- |
| > 4000 | 60.8 | B1 |
| > 4000 | 22.3 | B2 |
| > 4000 | 8.8 | B3 |
| > 4000 | 7.9 | B4 |
| > 4000 | 17.4 | B5 |
| > 4000 | 17.5 | B6 |
| 5.9 |  | B7 |
| 36.8 |  | B8 |
| 3.5 |  | B9 |
| > 4000 | 17.4 | B10 |

These binders were tested against T1, human C5a receptor (assay: competition with 125I-rhC5a tracer on RBL cells stably transfected with human C5a receptor, on ice, filtration).
Experimental: (§1) For competitive binding studies, 40 μl of a reaction mixture containing a constant amount of ¹²⁵I-rhC5a as tracer (≈17000 cpm) and increasing concentrations of unlabeled C5a muteins were incubated in a microtiter plate on ice. […] The binding reaction was started by adding 25 μl of ice-cold RBL-C5aR cell suspension. After incubation on ice for 30 min, cell bound and free ¹²⁵I-rhC5a were separated by filtration of 60 μl through a microtitration-membrane plate (Multiscreen™-HV; 0.45 μm, MAHV N45, Millipore) using a vacuum manifold (Millipore). […] Punched out membranes were counted in a γ-counter (Packard, Canberra). The plot of cell-bound ¹²⁵I-rhC5a versus concentration of unlabeled competitor yields the half-maximal inhibitory concentrations (IC₅₀) (cf. FIG. 3, Table 1).

| IC50 [nM] | Binder |
| --- | --- |
| 35.4 | B2 |
| 21.3 | B3 |
| 23.1 | B4 |
| 37.3 | B5 |
| 43.1 | B6 |
| 5.4 | B7 |
| 30.1 | B8 |
| 2.7 | B9 |
| 26.9 | B10 |

These binders were tested against T1, human C5a receptor (assay: competition with 125I-rhC5a on RBL cells stably transfected with human C5a receptor; reference rhC5a).
Experimental: The values for rhC5a (“isolated” curve closest to the y-axis) are depicted as black circles, those for the mutein A8B as rhombi, for A8BLeu70 as triangles, for A8BLeu70Tyr73 as squares, for A8BArg as hexagons, for A8Bdel71-73 as dark-gray circles and those for A8BCys73 as light-gray circles.
as §1

| fold difference of IC50 against rhC5a [fold] | Binder |
| --- | --- |
| 8 | B3 |
| 16 | B6 |
